Reference: paper PMC4822050, “Hemi-methylated DNA opens a closed conformation of UHRF1 to facilitate its histone recognition” (Nature Communications, 2016)

What was measured:
Assay in all cases: ITC; 0.05 mM protein in the cell, 0.5 mM protein or peptide in the syringe, iTC200, 18 °C, 10 mM HEPES pH 8.0, 100 mM NaCl
Details in all cases: both partners purified
[1] = molecular target: T1, full-length UHRF1 (residues 1–793) (human, UniProt Q96T88 1-793)
T1 construct: human UHRF1, residues 1–793; monomer by gel filtration; also called wild-type UHRF1; ICBP90
T1 sequence (looked up): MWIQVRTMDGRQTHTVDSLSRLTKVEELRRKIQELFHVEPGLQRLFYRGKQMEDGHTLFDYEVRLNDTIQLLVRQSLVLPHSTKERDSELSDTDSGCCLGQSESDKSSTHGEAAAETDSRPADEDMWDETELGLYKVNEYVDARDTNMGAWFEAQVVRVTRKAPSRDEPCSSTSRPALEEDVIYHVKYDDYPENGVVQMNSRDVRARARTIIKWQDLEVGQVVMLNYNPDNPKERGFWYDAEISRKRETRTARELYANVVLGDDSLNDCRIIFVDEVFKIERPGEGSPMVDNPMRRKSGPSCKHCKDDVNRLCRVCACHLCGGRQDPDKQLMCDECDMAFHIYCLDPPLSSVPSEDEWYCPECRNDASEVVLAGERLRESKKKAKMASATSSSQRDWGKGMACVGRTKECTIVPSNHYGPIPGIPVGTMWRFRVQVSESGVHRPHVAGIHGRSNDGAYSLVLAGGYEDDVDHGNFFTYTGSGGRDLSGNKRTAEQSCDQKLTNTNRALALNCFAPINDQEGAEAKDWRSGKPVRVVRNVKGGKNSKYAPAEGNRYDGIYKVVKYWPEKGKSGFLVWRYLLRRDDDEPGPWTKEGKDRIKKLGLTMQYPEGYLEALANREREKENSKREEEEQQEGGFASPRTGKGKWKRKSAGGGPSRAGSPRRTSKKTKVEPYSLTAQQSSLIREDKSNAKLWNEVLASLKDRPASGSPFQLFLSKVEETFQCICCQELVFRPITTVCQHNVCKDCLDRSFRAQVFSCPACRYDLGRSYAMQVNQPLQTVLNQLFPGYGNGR

[2] = molecular target: T2, TTD–PHD of UHRF1 (residues 134–366) (human, UniProt Q96T88 134-366)
T2 sequence (looked up): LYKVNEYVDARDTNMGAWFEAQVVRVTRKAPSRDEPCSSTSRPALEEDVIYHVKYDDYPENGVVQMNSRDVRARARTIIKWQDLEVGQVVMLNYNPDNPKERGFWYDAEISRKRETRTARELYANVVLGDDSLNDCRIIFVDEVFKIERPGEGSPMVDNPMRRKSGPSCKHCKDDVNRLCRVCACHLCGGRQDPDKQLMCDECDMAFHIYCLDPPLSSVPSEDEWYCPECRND

UHRF1^D334A&Δ627–674 = molecular target: T3, UHRF1^D334A&Δ627–674 (human, UniProt Q96T88 1-793, D334A | Δ627–674)
T3 construct: human UHRF1 (1–793)
T3 sequence (looked up): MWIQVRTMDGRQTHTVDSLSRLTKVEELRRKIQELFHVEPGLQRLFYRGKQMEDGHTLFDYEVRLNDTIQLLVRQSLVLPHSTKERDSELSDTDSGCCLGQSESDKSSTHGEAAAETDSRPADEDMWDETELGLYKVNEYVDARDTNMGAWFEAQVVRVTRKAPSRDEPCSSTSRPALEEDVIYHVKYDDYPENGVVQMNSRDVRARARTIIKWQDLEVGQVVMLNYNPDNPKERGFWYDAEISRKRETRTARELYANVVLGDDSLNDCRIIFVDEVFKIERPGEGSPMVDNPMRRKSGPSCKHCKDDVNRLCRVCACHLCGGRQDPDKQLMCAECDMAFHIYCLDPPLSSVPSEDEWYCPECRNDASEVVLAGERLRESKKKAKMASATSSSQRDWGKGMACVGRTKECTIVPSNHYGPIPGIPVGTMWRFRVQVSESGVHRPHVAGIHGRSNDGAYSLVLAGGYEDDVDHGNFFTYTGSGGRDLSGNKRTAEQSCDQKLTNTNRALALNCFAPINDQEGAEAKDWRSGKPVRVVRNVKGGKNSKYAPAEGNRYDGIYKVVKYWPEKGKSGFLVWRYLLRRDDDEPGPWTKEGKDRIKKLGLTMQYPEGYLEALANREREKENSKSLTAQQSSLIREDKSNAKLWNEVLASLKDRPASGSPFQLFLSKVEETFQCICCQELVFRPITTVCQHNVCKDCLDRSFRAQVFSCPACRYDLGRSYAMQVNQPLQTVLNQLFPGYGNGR

[3] = molecular target: T4, R295D/R296D mutant of full-length UHRF1 (human, UniProt Q96T88 1-793, R295D | R296D)
T4 construct: human UHRF1 (1–793)
T4 sequence (looked up): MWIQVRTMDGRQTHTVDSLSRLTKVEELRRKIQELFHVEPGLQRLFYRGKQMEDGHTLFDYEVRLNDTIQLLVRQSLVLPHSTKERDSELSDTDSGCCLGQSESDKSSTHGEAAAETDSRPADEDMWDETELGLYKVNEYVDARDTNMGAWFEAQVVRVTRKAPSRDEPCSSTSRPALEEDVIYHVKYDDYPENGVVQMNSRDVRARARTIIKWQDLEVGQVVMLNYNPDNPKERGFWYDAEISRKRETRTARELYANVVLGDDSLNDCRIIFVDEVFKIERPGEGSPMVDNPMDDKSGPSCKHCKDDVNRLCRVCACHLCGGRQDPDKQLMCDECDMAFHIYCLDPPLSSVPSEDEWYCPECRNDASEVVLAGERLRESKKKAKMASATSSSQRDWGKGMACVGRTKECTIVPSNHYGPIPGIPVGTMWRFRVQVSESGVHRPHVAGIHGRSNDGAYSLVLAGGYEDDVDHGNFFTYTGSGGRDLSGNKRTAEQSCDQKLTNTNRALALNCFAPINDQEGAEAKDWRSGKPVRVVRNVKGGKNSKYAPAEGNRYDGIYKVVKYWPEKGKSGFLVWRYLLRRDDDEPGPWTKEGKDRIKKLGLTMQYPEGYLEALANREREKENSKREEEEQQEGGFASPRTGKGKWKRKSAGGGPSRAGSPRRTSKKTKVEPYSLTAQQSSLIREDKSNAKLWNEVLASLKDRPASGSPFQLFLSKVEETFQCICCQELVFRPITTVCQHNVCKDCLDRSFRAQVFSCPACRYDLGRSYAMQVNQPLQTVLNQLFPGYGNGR

- Kd [1]: 4.61 µM
- Kd [2]: 0.15 µM
- Kd (UHRF1^D334A&Δ627–674): 8.69 µM
- fold lower binding affinity than wild type [3]: 8 fold
B1: H3K9me3 peptide (1–17) (peptide, UniProt P68431 2-18, looked up)
peptide: ARTKQTARKSTGGKAPR
modifications: trimethyl-lysine at K9
notes: histone H3, residues 1–17
